Blank lines part the entries; values can stand above or below the binder they belong to. Primed or numbered codes have the meaning given here. Where no end group is shown, it is not given here. [ ]: non-standard residue; d: D form. Ahx = NCCCCCC(=O)O; FAM″ = fluorescein
Legend:
[1] = target: T1, CTGF, endogenous human (U251 astrocytoma cell lysate; human AD brain sections) (human, UniProt P29279 27-349, limits assumed); assay: DAG-AgNP binding to cultured U251 cells, fluorescence microscopy
T1 construct: Native protein in a cell lysate, on cells or in tissue sections; Identified by LC-MS/MS against the Uniprot database; also called CCN2; connective tissue growth factor
T1 sequence (looked up): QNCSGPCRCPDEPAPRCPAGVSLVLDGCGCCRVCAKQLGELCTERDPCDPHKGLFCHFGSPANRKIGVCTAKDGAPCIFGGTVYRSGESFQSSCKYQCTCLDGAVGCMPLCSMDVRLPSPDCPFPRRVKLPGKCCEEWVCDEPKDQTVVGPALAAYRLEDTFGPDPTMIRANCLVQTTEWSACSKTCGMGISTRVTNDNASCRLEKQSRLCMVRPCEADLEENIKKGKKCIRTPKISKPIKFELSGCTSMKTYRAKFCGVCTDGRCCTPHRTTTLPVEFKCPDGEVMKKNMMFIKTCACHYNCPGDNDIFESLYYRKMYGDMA
Protocol: FIG. 7 is a graphical representation showing quantity of DAG-coated silver nanoparticles (DAG-AgNPs) binding to human astrocytoma U251 cells. Cultured U251 cells were incubated with DAG-AgNPs alone, in the presence of free non-labeled control peptide, or an excess of free, non-labeled DAG (both at 200 μM), for 1 hour at 37° C. Nanoparticle binding was quantified from fluorescence micrographs using ImageJ™ software. Scale bar, 20 μm.
Cell binding experiments on U251 cells and hiPSCs were with done using peptide conjugated AgNP. U251 cells were cultured in a 96-well plate. The cells were blocked with 200 μl of 10% FCS in HBSS (Hanks' Balanced Salt Solution from Gibco) for 30 min at 37° C. Following that, DAG-AgNPs (0.5 nM concentration diluted in HBSS) alone or in the presence of free non-labeled peptide (200 μM) were incubated on the cells for 1 hour at 37° C. After washing the unbound AgNP with HBSS three times, the plates were imaged with fluorescent microscopy by looking at intrinsic emission from the FAM tag on the peptide. hiPSCs were cultured in 48 well plate and similar protocol as described above was followed, with the exception that AgNP concentration for incubation was kept at 0.15 nM. Nanoparticle binding was quantified from fluorescence micrographs using ImageJ™ software.

[2] = target: T1, CTGF, endogenous human (U251 …); assay: affinity chromatography of U251 cell lysate on biotin-DAG magnetic particles, control peptide wash, elution with 1 mM free DAG, LC-MS/MS
Protocol: For identifying DAG binding proteins, the human glioblastoma astrocytoma cell line U251 was lysed in PBS containing 200 mM n-octyl-beta-D-glucopyranoside and protease inhibitor cocktail (Roche) as described previously with slight modifications. The clarified lysates were loaded on to Sera-Mag magnetic particles (GE Healthcare Lifesciences, USA) coated with biotin-DAG, and incubated overnight with rotation at 4° C. The magnetic beads were washed with wash buffer followed by additional washing with 0.5 mM control peptide ([…]; SEQ ID NO: 103) to remove non-specifically bound proteins. The bound proteins were eluted with 1 mM free DAG peptide. The eluted factions were pooled, their protein concentration determined by using bicinchoninic acid (BCA) protein assay (Pierce) and the samples were digested using the Filter-aided Sample Preparation (FASP) method. Finally, the digested samples were dried, desalted and subjected to LC-MS/MS analysis at the Sanford Burnham Prebys Medical Discovery Institute's Proteomics Core facility. All mass spectra were analyzed with MaxQuant™ software version 1.5.0.25. The MS/MS spectra were searched against the Uniprot™ protein sequence database (version July 2014).

binding result [1]: binds
B1: DAG-conjugated silver nanoparticles (FAM-cys-x-DAG-NH2 on AgNPs) (peptide)
peptide: {FAM″}-C[Ahx]CDAGRKQKC-NH2
modifications: also: conjugated via the added Cys thiol to maleimide-PEG on silver nanoparticles
notes: Many copies of the peptide on silver nanoparticles of about 35 nm; also called DAG-AgNP; DAG-AgNPs

binding result [2]: binds
B2: DAG peptide (CDAGRKQKC), labelled synthetic cyclic peptide (peptide)
peptide: CDAGRKQKC-NH2
modifications: not fully specified (bridges); also: fluorescein (FAM) or biotin tag at the N-terminus, described as a cyclic peptide, ring not given here
notes: also called FAM-DAG; FAM-labeled DAG
